Legend:
[1] = molecular target: CXCR4 receptor on the cell surface (UniProt P61073); assay: cell-based or functional assay
[2] = molecular target: wild gp120 fixed to CEM cells CD4+/CXCR4+ (HIV-1 (HXB2 clone of HIV-IIIB)) (UniProt P04578); assay: flow cytometry, antibody at 10 µg/ml on gp120 fixed to CEM cells CD4+/CXCR4+
[3] = molecular target: W338S gp120 fixed to CEM cells CD4+/CXCR4+ (HIV-1 (HXB2 clone of HIV-IIIB)) (UniProt P04578); assay: as above
[4] = molecular target: CD4 receptor on the cell surface (UniProt P01730); assay: cell-based or functional assay

Row | Substance | Percentage of fusion foci [1] [%] | average fluorescence intensity [2] | average fluorescence intensity [3] | Percentage of fusion foci [4] [%]
1 | gp160 envelope with 338 W/S in gp120, expressed on transfected HeLa-Tat cells (from UniProt P04578 33-856) | 0 | – | – | –
2 | AcM 17b (antibody) | – | 70.5 | 176 | –
3 | 112W/S gp120 expressed on the surface of transfected HeLa-Tat cells (gp160 envelope with 112 W/S) (from UniProt P04578 33-856) | – | – | – | 0
4 | gp160 envelope with 112 W/F in gp120, expressed on transfected HeLa-Tat cells (from UniProt P04578 33-856) | – | – | – | 60
5 | AcM 4.8d (antibody) | – | 76.8 | 209 | –

Reference: patent US7078038
